{"source": "paper PMC3159454", "about": "(Nucleic Acids Research, 2011)", "proteins": {"B1": {"name": "Elk-1 (recombinant, full length) (natural protein, UniProt P19419 1-428, looked up)", "chain": "MDPSVTLWQFLLQLLREQGNGHIISWTSRDGGEFKLVDAEEVARLWGLRKNKTNMNYDKLSRALRYYYDKNIIRKVSGQKFVYKFVSYPEVAGCSTEDCPPQPEVSVTSTMPNVAPAAIHAAPGDTVSGKPGTPKGAGMAGPGGLARSSRNEYMRSGLYSTFTIQSLQPQPPPHPRPAVVLPSAAPAGAAAPPSGSRSTSPSPLEACLEAEEAGLPLQVILTPPEAPNLKSEELNVEPGLGRALPPEVKVEGPKEELEVAGERGFVPETTKAEPEVPPQEGVPARLPAVVMDTAGQAGGHAASSPEISQPQKGRKPRDLELPLSPSLLGGPGPERTPGSGSGSGLQAPGPALTPSLLPTHTLTPVLLTPSSLPPSIHFWSTLSPIAPRSPAKLSFQFPSSGSAQVHIPSISVDGLSTPVVLSPGPQKP"}}, "molecular_target": "the molecule itself", "experiment": "SEC"}
{"protein": "B1", "values": [{"measurement": "stoichiometry N", "result": 2}]}
